Key:
[1] = molecular target: SARS-CoV-2 full length Spike protein, lineage B.1.1.7 (SARS-CoV-2)
[2] = molecular target: SARS-CoV-2 full length Spike protein, lineage B.1.351 (SARS-CoV-2)

Binder	bead assay binding signal [1]	bead assay binding signal [2]
antibody 1444 (antibody, V domains shown) VH: QVQLVQSGAEVKKPGASVKVSCKASGYTFTAYYMHWVRQAPGQGLEWMGWINPNSDDTNYAQKFQGRVTMTRDTSISTAYMELSRLRSDDTAVYYCAREEGVFTIGDRYFDLWGRGTLVSVSS VL: QTVVTQEPSFSVSPGGTVTLTCGLSSGSVSTSYYPSWYQQTPGQAPRTLIYNTNTRSSGVPDRFSGSILGNKAALTITGAQADDESDYYCVLYMGSGIWVFGGGTKLTVLG	626	802
antibody 851 (antibody, V domains shown) VH: QITLKESGPTLVKPTQTLTLTCTFSGFSLSTNGVGMGWIRQPPGKALEWLALIYWDDDQFYSPSLKSRLTITRDTSKNQVVLTMTNMDPVDTATYYCAQAFYESFGFYSWGQGTLVTVSS VL: NFMLTQPHSVSESPGKTVIISCTRSIGSIASNYVQWYQQRPGSAPTIVVFEDNERPSGVPDRFSGSIDRSSNSASLTISGLKTEDEADYYCQSYDGSSELVFGGGTKLTVLG	545	681
antibody 1037 (antibody, V domains shown) VH: QITLKESGPTLVKPTQTLTLTCTFSGFSLSTSGVGVGWIRQPPGKALEWLALIYWDDDKRYSPSLKSRLTITKDTSKNQVVLTMTNMDPVDTATYYCAHHTITRINDYWGQGTLVTVSS VL: QSALTQPASVSGSPGQSITISCTATSSDVGAYNYVSWYQQHPGKAPKLMIYDVSKRPSGVSNRFSGSKSGNTASLTISGLQAEDEADYYCSSYTSSSTVFGGGTKLTVLG	749	985
antibody 1404 (antibody, V domains shown) VH: QITLKESGPTLVKPTQTLTLTCTFSGFSLSISGVGVGWLRQPPGKALEWLALIYWDDDKRYSPSLKSRLTISKDTSKNQVVLKMTNIDPVDTATYYCAHHSISTIFDHWGQGTLVTVSS VL: QSALTQPASVSGSPGQSITISCTATSSDVGDYNYVSWYQQHPGKAPKLMIFEVSDRPSGISNRFSGSKSGNTASLTISGLQAEDEADYYCSSYTTSSAVFGGGTKLTVLG	719	941
antibody 923 (antibody, V domains shown) VH: EVQLVESGGGVVRPGGSLRLSCAASGFIFDDYDMTWVRQAPGKGLEWVSGISWNGGNTGYADSVKGRFTISRDNAKNSLYLQMNSLRAEDTALYHCAVIMSPIPRYSGYDWAGGAFDIWGQGTMVTVSS VL: SSELTQDPAVSVALGQTVRITCQGDSLRSYYASWYQQKPGQVPILVIYDKNNRPSGIPDRFSGSSSGNTASLTITGAQAEDEADYYCNSRDSSGNAVVFGGGTKLTVLG	604	435
antibody 1538 (antibody, V domains shown) VH: EVQLLESGGGLVQPGGSLRLSCAASGFTFSSYAMSWVRQAPGKGLEWVSGISDSGGSTYYADYVKGRFTISRDNSKDTLYLQMNSLRAEDTAVYYCAKDRGNEYALTHYYYYAMDVWGQGTTVTVSS VL: DIQMTQSPSSLSASVGDRVTITCRASQSISSYLNWYQQKPGKAPKLLIYAAYSLQSGVPSRFSGGGSGTDFTLTISSLQPEDFATYFCQQSYSTPITFGQGTRLEIKR	706	928
antibody 896 (antibody, V domains shown) VH: EVQLVESGGGVVQPGGSLRLSCAASGFTFDDYAMHWVRQVPGKGLEWVSLISGDGGSTYYADSVKGRFTISRDNSKNSLYVQMNSLRTEDTALYYCVKDRGGSGWDLNHYYYGMDVWGQGTTVTVSS VL: DIQLTQSPSFLSASVGDRVTVTCRASQGISSYLAWYQQKPGKAPKLLIYAAYTLQSGVPSRFSGSGSETEFTLTISSLQPEDFATYYCQQVKSYPLTFGGGTKVEIKR	692	946

From patent US20220356229A1
